Results from the supplement of paper PMC7125110.
± gives the standard error. For part of these data: Fewer inactive variants are shown than the library holds.

B1: glmS ribozyme (parent)
chain: AUAAAAGCGCCAGAACUACAGAAAUGUAGUUGACGAGGAGGAGGUUUAUCGAAUUUUCGGCGGAUGCCUCCAAA

Key:
Settings in all cases: with glucosamine-6-phosphate
[1] = variants of: B1; assay: kcat; higher = faster cleavage; RNA array
Method in brief: (§1)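 Sequenced MiSeq chips were the platform: E. coli RNA polymerase transcribed barcoded ribozyme variants on them in situ, and a hybridised Cy3 probe tracked these at 37 °C. After glucosamine-6-phosphate (40 μM to 10 mM) in HEPES/KCl/Mg(OAc)2 buffer was flowed in, tiles were imaged over ~14 h. Signals normalised to baseline and to non-cleaving reference variants were reduced to per-tile medians and fit to one- or two-exponential decays to obtain kobs. kcat and KM were derived through weighted Michaelis–Menten fits across concentrations.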

[2] = variants of: B1; assay: KM; higher = weaker cofactor use; RNA array
Method in brief: as §1

[3] = variants of: B1; assay: self-cleavage kobs at 40 uM GlcN6P; higher = faster cleavage; RNA array
Method in brief: as §1

[4] = variants of: B1; assay: self-cleavage kobs at 160 uM GlcN6P; higher = faster cleavage; RNA array
Method in brief: as §1

[5] = variants of: B1; assay: self-cleavage kobs at 10000 uM GlcN6P; higher = faster cleavage; RNA array
Method in brief: as §1

[6] = variants of: B1; assay: self-cleavage kobs at 640 uM GlcN6P; higher = faster cleavage; RNA array
Method in brief: as §1

[7] = variants of: B1; assay: self-cleavage kobs at 2500 uM GlcN6P; higher = faster cleavage; RNA array
Method in brief: as §1

Variant | kcat [1] [s⁻¹] | KM [2] [mM] | self-cleavage kobs at 40 uM GlcN6P [3] [s⁻¹] | self-cleavage kobs at 160 uM GlcN6P [4] [s⁻¹] | self-cleavage kobs at 10000 uM GlcN6P [5] [s⁻¹] | self-cleavage kobs at 640 uM GlcN6P [6] [s⁻¹] | self-cleavage kobs at 2500 uM GlcN6P [7] [s⁻¹]
G13C A53C | 2.72e-05 ± 1.4e-06 | 0.802 ± 0.26 | < 1e-05 | < 1e-05 | 2.49e-05 ± 1.2e-05 | – | –
G13A C70G | 3.04e-05 ± 1.3e-05 | – | – | – | – | 5.03e-05 ± 1.9e-05 | 5.41e-05 ± 1.5e-05
G13A U69C | 0.000255 ± 8.6e-05 | – | – | – | 0.000179 ± 4.5e-05 | – | 0.000132 ± 2.8e-05
G13A U69A | 4.03e-05 ± 1.6e-05 | – | – | – | – | – | 6.18e-05 ± 1.2e-05
G13C C70G | 2.09e-05 ± 5.8e-06 | – | – | – | – | – | –
G13A U57A | 5.51e-05 ± 4.2e-06 | 0.37 ± 0.13 | – | – | – | – | 4.76e-05 ± 1.5e-05
A14C A33U C50U C70A | 3.25e-05 ± 1.4e-05 | – | – | – | – | 4.2e-05 ± 1.9e-05 | –
G13U G29C | 0.000126 ± 2.5e-05 | – | – | – | 0.000107 ± 1.4e-05 | 4.72e-05 ± 1.7e-05 | 0.00015 ± 2.3e-05
A14C A39U | 0.00308 ± 0.00063 | 2.44 ± 0.67 | 6.46e-05 ± 6.9e-06 | 0.000162 ± 1.9e-05 | 0.00242 ± 0.00026 | 0.000605 ± 6.5e-05 | 0.00174 ± 0.00021
A14C A39G | 0.0127 ± 0.0026 | 3.77 ± 0.97 | 0.000147 ± 1.6e-05 | 0.000352 ± 0.00017 | 0.0095 ± 0.0016 | 0.00155 ± 0.0003 | 0.0051 ± 0.00078
G13C U56A | 0.000106 ± 6.7e-06 | 3.41 ± 0.53 | – | – | 7.93e-05 ± 9.5e-06 | – | 4.38e-05 ± 7.3e-06
G13U U47A | 0.00106 ± 0.00021 | 4.31 ± 1.3 | 2.95e-05 ± 1.5e-05 | 3.53e-05 ± 1.3e-05 | 0.000776 ± 8.7e-05 | 0.000144 ± 1.5e-05 | 0.000332 ± 5e-05
G13U C70A | 3.03e-05 ± 5.4e-06 | – | – | – | 2.01e-05 ± 1e-05 | 3.7e-05 ± 1.1e-05 | 3.54e-05 ± 9.8e-06
G13U C70U | 0.00213 ± 0.00039 | 3.2 ± 0.84 | 2.45e-05 ± 1e-05 | 0.000126 ± 2.3e-05 | 0.00172 ± 0.00026 | 0.000329 ± 5.2e-05 | 0.000792 ± 0.00018
G13A U31A | 0.00146 ± 4.2e-05 | 9.8 ± 0.41 | – | – | 0.00074 ± 0.0001 | 9.06e-05 ± 1.9e-05 | 0.000292 ± 6.9e-05
G13A U31C | 0.00123 ± 0.00012 | 4.56 ± 0.74 | – | 3.44e-05 ± 1.2e-05 | 0.00084 ± 0.00011 | 0.000169 ± 3.3e-05 | 0.000441 ± 6.9e-05
G13A G60U | < 1e-05 | – | – | – | < 1e-05 | – | –

Variant | kcat [1] [s⁻¹] | KM [2] [mM] | self-cleavage kobs at 40 uM GlcN6P [3] [s⁻¹] | self-cleavage kobs at 160 uM GlcN6P [4] [s⁻¹] | self-cleavage kobs at 10000 uM GlcN6P [5] [s⁻¹] | self-cleavage kobs at 640 uM GlcN6P [6] [s⁻¹] | self-cleavage kobs at 2500 uM GlcN6P [7] [s⁻¹]
G13C U30G | 3.93e-05 ± 3.7e-06 | 2.1 ± 0.83 | – | – | 3.23e-05 ± 9.3e-06 | – | –
G13C A42C | < 1e-05 | – | < 1e-05 | – | < 1e-05 | – | –
G13C C16G | 0.000162 ± 5.6e-05 | – | – | – | 0.000108 ± 1.6e-05 | 4.75e-05 ± 2.1e-05 | 4.43e-05 ± 1.5e-05
G13A C71G | 5.85e-05 ± 4.1e-06 | – | – | – | 5.48e-05 ± 7e-06 | 5.42e-05 ± 1.3e-05 | 5.71e-05 ± 9.7e-06
G13A G40U | 8.11e-05 ± 1e-05 | 2.81 ± 0.99 | < 1e-05 | – | 6.21e-05 ± 8.8e-06 | – | 4.21e-05 ± 8.5e-06
G13U U56C | 0.000107 ± 3.8e-05 | – | < 1e-05 | – | 0.000214 ± 4.4e-05 | 9.36e-05 ± 1.9e-05 | 7.63e-05 ± 1.5e-05
G13U U55A | 0.00182 ± 0.00037 | 3.54 ± 1.2 | 3.28e-05 ± 7.2e-06 | 8.82e-05 ± 1.7e-05 | 0.00135 ± 0.00013 | 0.000214 ± 4e-05 | 0.000853 ± 0.00015
G13U U55C | 0.000878 ± 0.00013 | 3.97 ± 1.2 | – | 2.79e-05 ± 1.3e-05 | 0.000642 ± 7e-05 | 0.000149 ± 3.4e-05 | 0.000304 ± 5.4e-05
G13U U31C | 0.000427 ± 1.8e-05 | 1.04 ± 0.11 | – | 4.8e-05 ± 2.1e-05 | 0.000387 ± 5.1e-05 | 0.00017 ± 2.8e-05 | 0.000297 ± 3.8e-05
G13U U31G | 0.000294 ± 0.0001 | – | – | 2.89e-05 ± 1.3e-05 | 0.000207 ± 2.6e-05 | 4.24e-05 ± 8.5e-06 | 0.000226 ± 2.7e-05
G13U A14G C61U C70G | 1.9e-05 ± 5.3e-06 | – | – | – | – | – | –
G13U C71U | 0.00114 ± 0.00015 | 2.02 ± 0.47 | 2.24e-05 ± 7.7e-06 | 0.000105 ± 1.7e-05 | 0.000946 ± 9.8e-05 | 0.000229 ± 3.7e-05 | 0.000673 ± 8.2e-05
G13U G41U | 7.91e-05 ± 6.7e-06 | 4.15 ± 0.89 | – | – | 5.57e-05 ± 8.2e-06 | – | 3.07e-05 ± 8.6e-06
G13U G41C | 0.000161 ± 1.8e-05 | – | < 1e-05 | < 1e-05 | – | < 1e-05 | –
G13U G29U U31C | 1.48e-05 ± 3.5e-06 | – | < 1e-05 | – | – | – | –
G13U A14G | 0.00536 ± 0.0022 | – | 0.000124 ± 2e-05 | 0.00019 ± 7.3e-05 | 0.00495 ± 0.00073 | 0.00104 ± 0.00019 | 0.00171 ± 0.00049
G13U G66U | 3.6e-05 ± 2.5e-06 | 3.58 ± 0.63 | – | – | 2.65e-05 ± 1.1e-05 | – | –
